# Values quoted from earlier work in publication PMC12461627, “Locking CBL TKBD in its native conformation presents a novel therapeutic opportunity in mutant CBL-dependent leukemia” (Molecular Therapy, 2025).
# Target: pSYK peptide (Homo sapiens) (UniProt P43405)
# Settings: cited from earlier work
substance,measurement,value
CBL TKBD (from UniProt P22681),Kd,1.48 µM
